From patent publication US20260258115A1

What was measured:
[1] = molecular target: Respiratory Syncytial Virus fusion glycoprotein (RSV F) on RSV-A2 virus (Respiratory Syncytial Virus subtype A (RSV-A2)); test: cell-based or functional assay
[2] = molecular target: RSV prefusion F (preF), DS-Cav1 (Respiratory Syncytial Virus); test: BLI, IgG on anti-human IgG sensor, 100 nM antigen

B1: ADI-36681 (antibody, V domains shown)
VH: EVQLVESGAEVKKPGESLKISCKASGYSFTRYWIGWVRQMPGKGLEWMGIIFPGDSDTRYCPSFEGQVTISADRSINTAYLQWSSLKASDSAMYYCVTLYTDYDYGAPDHWGQGTLVTVSS
VL: DIVLTQSPATLSVSPGERATLSCRASQSLSGDLAWYQQKPGQAPRLLIYATSTRATGIPARFSGSGSGAEFTLTISSLQSEDFAVYYCQQYYDWPLLTFGPGTKVEIK
Neutralization IC50 (RSV subtype A) [1]: 0.01 µg/mL
Kd [2]: 1200 pM

B2: ADI-41199 (antibody, V domains shown)
VH: QVQLVESGGGLVKPGGSLRLSCGASGFTFPDYYMSWIRQAPGKGLEWLSYISSSSSFTDYADSVKGRFTISRDNAKKSLYLQMNSLRAEDTAVYYCARVRADYVGNSRIHFDYWGQGTLVTVSS
VL: DIVMTQSPVTLSVSPGERATLSCRASQSLNGYLAWYQQKPGQAPRLLIYGASTRATEPGWDTSGRGSGTEFTLTISSLQSEDFAVYYCQQYNDWPFTFGQGTRLEIK
Neutralization IC50 (RSV subtype A) [1]: 0.23 µg/mL
Kd [2]: 1730 pM

B3: ADI-41180 (antibody, V domains shown)
VH: EVQLVQSGGGLVKPGGSLRLSCAASGFTFIDYYMSWIRQAPGKGLEWVSSISGGSTYTTYADSVKGRFTISRDNGKNSLYLQMDSLRAEDTAVYYCARLGGYSYYMDVWGKGTTVTVSS
VL: QPVLTQPPSVSGAPGQRVTISCTGSSSNIGAGYDVHWYQHLPGAAPKLLIYDNTNRPSGIPDRFSGSKSGTSASLAITGLQAEDEADYYCQSYDSSLDWVFGGGTKVTVL
Neutralization IC50 (RSV subtype A) [1]: 0.07 µg/mL
Kd [2]: 470 pM

B4: ADI-41217 (antibody, V domains shown)
VH: EVQLVQSGGGLVKPGGSLRLSCVASGFTFSSYSMNWVRQAPGKGLEWVSSISASSSYIDYADSVKGRFTISRDNDKKSLYLQMSSLRAEDTAVYYCAREDYDSLTGYYSPKRFDPWGQGTLVTVSS
VL: QSVLTQPPSLSGAPGQRVTISCTGSSSNIGAGYDVHWYQQLPGTAPKLLIYGNNNRPSGVPDRFSGSKSGTSASLAITGLQAEDEADYYCQSYDRSLSVVFGGGTKVTVL
Neutralization IC50 (RSV subtype A) [1]: 0.04 µg/mL
Kd [2]: 489 pM

B5: ADI-41227 (antibody, V domains shown)
VH: RSSWCSVGAEVKKRGSSVKVSCKASGGTFGGYAVSWVRQAPGQGLEWMGGIIPMFYTTKYAQKLQGRVTITADESTNTAYMDLSSLTSDDTAIYFCAREWHLGRTAVTGTGAFLDAFDIWGQGTMVTVSS
VL: SYELTQPPSVSEAPRQRVTISCSGSSSNIGNNAVNWYQQLPGKAPKLLIYYDDLLPSGVSDRFSGSKSGTSASLAISGLQSEDEADYYCSAWDDSLNGWVFGGGTKLTVL
Neutralization IC50 (RSV subtype A) [1]: > 25 µg/mL
Kd [2]: 4620 pM

B6: ADI-41210 (antibody, V domains shown)
VH: QVQLVQSGAEVKKPGASVKVSCKASGYTFNNYGISWVRQAPGQGLEWMGWISAYNGDIKYAQKFQGRVTVTTDTSTSTAYMELRSLRSDDTAVYYCARDTPVGGGTQTFDYWGQGTLVTVSS
VL: ETTLTQSPLSLPVTLGQPASISCRSSQSLVHSNGNTYLNWFQQRPGQSPRRLIYTVSNRDSGVPDRFSGSGSGTDFTLKISRVEAEDVGVYYCMQATHRPGTFGQGTKVEIK
Neutralization IC50 (RSV subtype A) [1]: 0.1 µg/mL
Kd [2]: 470 pM

B7: ADI-36679 (antibody, V domains shown)
VH: QVQLVQSGAEVKKPGESLKISCKGSGYSFRSYWIAWVRQMPGKGLEWMGTIFPGDSDVTYSPSFQGQVTISVDKSTSTAYLQWGSLKASDTAIYYCARRYDYIDFWGQGTLVTVSS
VL: DIQMTQSPSSLSASVGDRVTITCQASQDIINHLNWYQQKPGKAPKLLIYDASNLHPGVPSRFSGSGSGTYFTFTISSLQPDDFATYYCQQYDFLAHITFGPGTKVDIK
Neutralization IC50 (RSV subtype A) [1]: 0.01 µg/mL
Kd [2]: 878 pM

B8: ADI-41188 (antibody, V domains shown)
VH: QVQLQQWGAGLLKSSETLSLTCAVYGGSFSGYYWSWIRQSPGKGLEWIGEINHSGSANYNPSLKNRVTISRDTSKNQFSLWLSSVTAADTAVYYCARTSRSPEPDNYYYYMDVWGRGTTVTVSS
VL: QSVLTQPPSVSGAPGQRVSISCTGSSSDIGAGYDVHWYQQFPGTAPKLLMYANNNRPSGVPDRFSGSRSGTSASLAITGLQAEDEADYYCQSYDSNLDVVVFGGGTKLTVL
Neutralization IC50 (RSV subtype A) [1]: 0.15 µg/mL
Kd [2]: 224 pM

B9: ADI-36680 (antibody, V domains shown)
VH: QVTLKESGAELRKPGESLKISCKASGYRFTNYWIGWVRQMPGKGLEWMGVIYPGDSDTKYSPSFQGQVTMSADKSINTAYLQWSSLKASDTAIYYCVSLFGDYDYGALDYWGQGTLVTVSS
VL: ETTLTQSPATLSMSPGERATLSCRASQSVGRNLAWYQQKPGQAPRLLIYGASIRATGILARFSGSGSGTEYTLTISSLQPEDFAVYYCQQYHDWPSFTFGPGTKVDIK
Neutralization IC50 (RSV subtype A) [1]: 0.01 µg/mL
Kd [2]: 719 pM

B10: ADI-41198 (antibody, V domains shown)
VH: EVQLVQSGGVVIQPGGSLRLSCAASGFSFDEYLMHWVRQLPGKGLEWVALISWHGDITYYADSVKGRFTISRDNSRYSLYLQMNSLRSDDTALYYCVKDGWIEGAFNHTFGIGYYFENWGQGTLVTVSS
VL: DIVLTQTPSSLSASVGDRVTITCQASQDINNCLNWYQQKPGKAPEVLIFDASNLETGVPLRFSGSGSGTHFTLTISSLQPEDIATYYCQQHENVPLTFGGGTKVEIK
Neutralization IC50 (RSV subtype A) [1]: 0.32 µg/mL
Kd [2]: 756 pM

B11: ADI-41206 (antibody, V domains shown)
VH: EVQLLESGGGLVKPGGSLRLSCAGSGFSFSSYSMNWVRQAPEKGLEWVSSISASSSFINYADSVKGRFIISRDNAKNSLFLQMDSLRAEDTAVYYCARDGVHPGGYIFGGYIDSWGQGTLVTVSS
VL: QSVLTQPPSVSGAPGQRVTISCTGSSSNIGAGYDVHWFRQLPGTAPKLLIYGNNNRPSGVPDRFSGSKSGSSASLIITGLQAQDEATYYCQSYDSSLSGYVFGTGTKLTVL
Neutralization IC50 (RSV subtype A) [1]: 0.07 µg/mL
Kd [2]: 409 pM

B12: ADI-41204 (antibody, V domains shown)
VH: EVQLLESGGGLVKPGGSLRLSCAASGFTFSSYSMNWVRQAPGKGLEWVSSISAGSSYIYYADSVKGRFTISRDNAKNSLYLQMNSLRAEDTAVYYCARVPSYETTPYFDYWGQGTLVTVSS
VL: QSVLTQPPSVSGAPGQRVTISCTGSSSNIGSGYDLHWYQQLPGTAPKLLIYVNSNRPSGVPDRFSGSKSGTSASLAITGLQAEDEADYYCQSYDSSLSGYVFGTGTKVTVL
Neutralization IC50 (RSV subtype A) [1]: 0.06 µg/mL
Kd [2]: 545 pM

B13: ADI-41233 (antibody, V domains shown)
VH: EVQLLESGGGLVKPGGSLRLSCAASGFIFRDYYMIWIRQAPGKGLEWVSYISSSSTYTNNADSVKGRFTISRDNAKNSLYLQMNSLRAEDTAVYYCARLFASRSDGAFDIWGQGTTVTVSS
VL: QSVLTQPPSVSGAPGQRVTISCTGSSSNIGAGYDVHWYQQLPETAPKLLIYDNNNRPSGVPDRFSGSKSGTSASLAITGLQAEDEADYYCQSYDSSLSGYVFGTGTTVTVL
Neutralization IC50 (RSV subtype A) [1]: 0.15 µg/mL
Kd [2]: 1060 pM

B14: ADI-41168 (antibody, V domains shown)
VH: EVQLVETGGGVVQPGRSLRLSCAASGFTFSSYGMHWVRQAPGKGLEWVAVISYDGSNKYYADSVKGRFTISRDNSKNTLYLQMNSLRTEDTAVYYCAKGGGYYYYYMDVWGKGTTVTVSS
VL: QPVLTQPASVSGSPGQSITISCTGTSSDVGGYNYVSWYQQHPGKAPKLMIYGVNNRPSGVSNRFSGSKSGNTASLTISGLQGEDEADYYCNSYRSGITVVFGGGTKLTVL
Neutralization IC50 (RSV subtype A) [1]: > 25 µg/mL
Kd [2]: 133000 pM

B15: ADI-41147 (antibody, V domains shown)
VH: EVQLVESGGGLVKPGGSLRLSCAASGFTLSGYYMSWVRQAPGKGLEWISYISGGSTYTNYADSVNGRFTISRDNAKNSLYLQMDSLRAEDTAVYYCARLEYGDYGPYYLGLWGRGTLVTVSS
VL: QSVLTQPPSVSGAPGQRVTISCTGTSSNIGAGYDVHWYQKLPGTAPKLLIYANNNRPSGVPDRFSGSKSGTSASLAITGLQAEDEADYYCQSYDTSLSAHYVFGTGTKLTVL
Neutralization IC50 (RSV subtype A) [1]: 0.06 µg/mL
Kd [2]: 467 pM

B16: ADI-41226 (antibody, V domains shown)
VH: EVQLVESGGGLVKPGGSLRLSCAASRFTFAGYYMSWIRQAPGKGLEWVSDISPSSTYTNYADSVKGRFTISRDNAGTSVSLQMDSLRADDTAVYYCARITPYGGSHYFDSWGQGTLVTVSS
VL: QPVLTQPPSVSGAPGQRVTISCTGSSSNIGAGYDLHWYQQLPGTAPKLLIYGNSNRPSGVPDRFSGSKSGTSASLAITGLQAEDEADYYCQSYDNSLSGFYVFGTGTKVTVL
Neutralization IC50 (RSV subtype A) [1]: 0.15 µg/mL
Kd [2]: 820 pM

B17: ADI-41216 (antibody, V domains shown)
VH: EVQLVESGGGLVKPGESLRLSCAASGFRFSDHYMSWIRQAPGKGLEWISYISSSSSYIHYADSVTGRFTISRDNAKNSMYLQMNSLRAEDTAVYYCAREIGRSYYMDVWGKGTTVTVSS
VL: QSALIQPPSVSGAPGQRVTISCTGSSSNIGAGYDVHWYQQLPGTAPKLLIYGNNNRPSGVPDRFSASKSGISASLAITGVQTEDEADYYCQSYDRSLSEFYVFGSGTKVTVL
Neutralization IC50 (RSV subtype A) [1]: 0.19 µg/mL
Kd [2]: 903 pM

B18: ADI-41193 (antibody, V domains shown)
VH: EVQLVESGGGLVKPGMSLRLSCAASGFRFSDHYMNWIRQAPGKGLEWVSYISSSSTYTDYTDSVKGRFTISRDNSKNSVYLQMNSLRAEDTAIYYCARVAPIRHNGDYIDYWGQGTTVTVSS
VL: NFMLTQPPSASGTPGQRVTISCTGSSSNIGAGYDVHZYQQIPGTAPKLLIYGNNNRPSGVPDRFSGSKSGTSASLAITGLQTEDEADYYCQSYDRGLSGRVFGTGTKVTVL
Neutralization IC50 (RSV subtype A) [1]: 0.07 µg/mL
Kd [2]: 740 pM

B19: ADI-41157 (antibody, V domains shown)
VH: EVQLVESGPGLVKPSETLSLTCTVSGGSISTYYWSWIRQPPGKGLEWIGYIYYTGSTNYNPSLKSRVTISLDTSKNQFSLKLSSVSAADTAFYYCARSPPVPGTRSWFDPWGQGTLVTVSS
VL: SPGLTQPQSAFGTPGQRVTISCFGSSSNIGRNHIYWYQQVPGTAPKLLIYRNNQRPSGVPDRFFGSKFGTSASLAISGVRSEDEADYFCAAWDDSLSGPVFGGGTKLTVL
Neutralization IC50 (RSV subtype A) [1]: 0.22 µg/mL
Kd [2]: 507 pM

B20: ADI-41165 (antibody, V domains shown)
VH: EVQLVETGAEVKKPGESLKISCKGSGYSFTSYWIGWVRQMPGKGLEWMGIIYPGDSDTRYSPSFQGQVTISADKSISTAYLQWSSLKASDTAMYYCARRYDYIDIWGQGTMVTVSS
VL: DIRVTQSPSSLSASVGDRVTITCQASQDISNYLNWYQQKPGKAPKLLIYDASNLETGVPSRFSGSGSGTDFTFTISSLQPEDIATYYCQQYDNLAHITFGPGTKVEIK
Neutralization IC50 (RSV subtype A) [1]: > 25 µg/mL
Kd [2]: 2400 pM
